Assay results: patent US20190375846A1 (ULTRAHUMAN ONE, published 2019)

How the values were obtained:
[1] = target: T1, human GITR-Fc (human, UniProt Q9Y5U5 26-161); assay: direct titration ELISA on coated human GITR-Fc, IgG1 0.001-1 µg/ml, OD 450 nm
T1 construct: Recombinant GITR-Fc; also called hGITR-Fc; hGITR; not shown: Fc part
T1 sequence (looked up): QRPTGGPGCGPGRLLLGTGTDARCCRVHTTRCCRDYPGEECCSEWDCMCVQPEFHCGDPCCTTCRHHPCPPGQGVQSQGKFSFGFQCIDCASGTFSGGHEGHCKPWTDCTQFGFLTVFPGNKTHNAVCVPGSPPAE
Protocol: (§1) To coat Greiner Bio-One High bind ELISA plates, target proteins were diluted to 1 μg/ml in carbonate buffer and added at 100 μl per well, at 4° C., o/n. Coated plates were washed 3× with PBS pH7.4, blocked with 1% BSA in PBS (380 μl/well) for 1 hr at RT, then washed 3× with PBS-Tween 20 (PBST). GITR antibodies (100 μl/well; diluted in PBST) were then added and then incubated 1 hr at RT. Plates were then washed 3× with PBST and goat anti-human kappa chain-HRP added (100 μl/well) at RT, for 1 hr. Plates were then washed 3× with PBST and twice with PBS before the addition of 100 μl TMB per well. Reactions were stopped by adding 100 μl 2M H₂SO₄/well and OD was read on a plate reader at 450 nm. IgG binding analysis via ELISA on negatively charged biomolecular surfaces were performed as previously described (see Mouquet et al., 2010, Nature 467: 591-595).
(§2) Retention of GITR-binding function in the purified IgG1 proteins was first examined by titration in direct binding ELISA against human GITR-Fc. […] Importantly, the >100-fold loss of binding function in the VH2 IgG family further illustrated that the HCDR1 could not be fully germ-lined a priori to match the native sequence of the human germline HCDR1 found in the framework used for grafting (IGHV3-7).

[2] = target: T1, human GITR-Fc; assay: SPR (Biacore), Fab over GITR-Fc captured on anti-human Fc, 37 C, 1:1 model
Protocol: (§3) For affinity estimation, anti-human IgG Fc antibody was amine coupled at pH 5 onto three flow cells (Fc 1 to Fc 3) of a Biacore CM5 chip. The level of anti-Fc antibody immobilised onto the chip was approximately 550 RU. Human and cyno GITR-Fc and irrelevant receptor-Fc proteins were then captured onto the anti-Fc antibodies (by injecting over the antibody surface until nearly/completely saturated) in order that 80-100 RU were captured. Fab monomers were then injected over the Fc proteins captured on the chip at 37° C. a flow rate of 50 μl/min for 120 seconds, followed by Biacore running buffer (HBS-EP) being flowed over the chip for 240 seconds at 50 μl/min. The chip was regenerated between cycles using 2×15 second injections of 10 mM Glycine pH 2. The concentrations of Fab samples tested were 400, 200, 100, 50, 25, 12.5, and 6.25 nM. A Biacore running buffer control (0 nM) was also included as a control.
(§4) Monomeric Fab fragments were generated and flowed in the mobile phase on human and cyno GITR-Fc coated biosensor chips, to derive 1:1 binding values.

[3] = target: T2, cynomolgus monkey GITR-Fc (cynomolgus monkey (Macaca fascicularis)); assay: as above
T2 construct: also called cyno GITR-Fc; cGITR-Fc
Protocol: as §3, §4

[4] = target: T1, human GITR-Fc; assay: direct titration ELISA, coated human GITR-Fc, IgG1
Protocol: as §1, §2

[5] = target: T1, human GITR-Fc; assay: ELISA of IgG1 proteins
Protocol: as §1
To examine the influence of these mutations on immunogenicity and function, five further designer mutants (A6.1 to A6.5, see Table 4 for CDR sequences) were also submitted for Epibase analysis (Table 5). […] Cyno GITR binding was greatly diminished for all of clones A6.2 to A6.5.

B1: VH4/VL1 IgG1 (antibody, V domains shown)
VH: EVQLVQSGAEVKKPGESLKISCKGSGFSLSTSGMGVGWVRQMPGKGLEWLAHIWWDDDKYYSPSFQGQVTISADKSISTAYLQWSSLKASDTAMYYCARTRRYFPFAYWGQGTLVTVSS
VL: EIVMTQSPATLSVSPGERATLSCKASQNVGTNVAWYQQKPGQAPRLLIYSASYRYSGIPARFSGSGSGTEFTLTISSLQSEDFAVYYCQQYNTDPLTFGGGTKVEIK
notes: Human IgG1; also called VH4 family
binding result [1]: binds

B2: VH3/VL1 IgG1 (antibody, V domains shown)
VH: EVQLVESGGGLVQPGGSLRLSCAASGFSLSTSGMGVGWVRQAPGKGLEWLAHIWWDDDKYYVDSVKGRFTISRDNAKNSLYLQMNSLRAEDTAVYYCARTRRYFPFAYWGQGTLVTVSS
VL: EIVMTQSPATLSVSPGERATLSCKASQNVGTNVAWYQQKPGQAPRLLIYSASYRYSGIPARFSGSGSGTEFTLTISSLQSEDFAVYYCQQYNTDPLTFGGGTKVEIK
notes: Human IgG1; also called VH3 family
binding result [1]: binds

B3: VH1/VL1 Fab (Fab, V domains shown)
VH: QVTLRESGPALVKPTQTLTLTCTFSGFSLSTSGMGVGWIRQPPGKALEWLAHIWWDDDKYYNPSLKSRLTISKDTSKNQVVLTMTNMDPVDTATYYCARTRRYFPFAYWGQGTLVTVSS
VL: EIVMTQSPATLSVSPGERATLSCKASQNVGTNVAWYQQKPGQAPRLLIYSASYRYSGIPARFSGSGSGTEFTLTISSLQSEDFAVYYCQQYNTDPLTFGGGTKVEIK
notes: also called VH1/VL1 Fab fragment
Kd [2]: 110 nM | koff [2]: 0.0051 s⁻¹ | kon [2]: 45000 M⁻¹ s⁻¹ | Kd [3]: 270 nM | koff [3]: 0.0061 s⁻¹ | kon [3]: 22000 M⁻¹ s⁻¹

B4: VH4/VL3 IgG1 (antibody, V domains shown)
VH: EVQLVQSGAEVKKPGESLKISCKGSGFSLSTSGMGVGWVRQMPGKGLEWLAHIWWDDDKYYSPSFQGQVTISADKSISTAYLQWSSLKASDTAMYYCARTRRYFPFAYWGQGTLVTVSS
VL: DIQMTQSPSSLSASVGDRVTITCRASQNVGTNVAWYQQKPGKAPKLLIYSASYRYSGVPSRFSGSGSGTDFTLTISSLQPEDFATYYCQQYNTDPLTFGGGTKVEIK
notes: as for B1
binding result [1]: binds

B5: VH2/VL1 IgG1 (antibody, V domains shown)
VH: EVQLVESGGGLVQPGGSLRLSCAASGFTFSSYWMSWVRQAPGKGLEWLAHIWWDDDKYYVDSVKGRFTISRDNAKNSLYLQMNSLRAEDTAVYYCARTRRYFPFAYWGQGTLVTVSS
VL: EIVMTQSPATLSVSPGERATLSCKASQNVGTNVAWYQQKPGQAPRLLIYSASYRYSGIPARFSGSGSGTEFTLTISSLQSEDFAVYYCQQYNTDPLTFGGGTKVEIK
notes: Human IgG1; The dash printed in the HCDR1 of VH2 is an alignment gap; also called VH2 family
fold loss of binding function (against mVH/mVL IgG) [4]: > 100 fold

B6: VH1/VL2 IgG1 (antibody, V domains shown)
VH: QVTLRESGPALVKPTQTLTLTCTFSGFSLSTSGMGVGWIRQPPGKALEWLAHIWWDDDKYYNPSLKSRLTISKDTSKNQVVLTMTNMDPVDTATYYCARTRRYFPFAYWGQGTLVTVSS
VL: EIVLTQSPATLSLSPGERATLSCRASQNVGTNVAWYQQKPGQAPRLLIYSASYRYSGIPARFSGSGSGTDFTLTISSLEPEDFAVYYCQQYNTDPLTFGGGTKVEIK
notes: Human IgG1; also called VH1 family
binding result [1]: binds

B7: VH2/VL2 IgG1 (antibody, V domains shown)
VH: EVQLVESGGGLVQPGGSLRLSCAASGFTFSSYWMSWVRQAPGKGLEWLAHIWWDDDKYYVDSVKGRFTISRDNAKNSLYLQMNSLRAEDTAVYYCARTRRYFPFAYWGQGTLVTVSS
VL: EIVLTQSPATLSLSPGERATLSCRASQNVGTNVAWYQQKPGQAPRLLIYSASYRYSGIPARFSGSGSGTDFTLTISSLEPEDFAVYYCQQYNTDPLTFGGGTKVEIK
notes: Human IgG1; also called VH2 family
fold loss of binding function (against mVH/mVL IgG) [4]: > 100 fold

B8: VH4/VL2 IgG1 (antibody, V domains shown)
VH: EVQLVQSGAEVKKPGESLKISCKGSGFSLSTSGMGVGWVRQMPGKGLEWLAHIWWDDDKYYSPSFQGQVTISADKSISTAYLQWSSLKASDTAMYYCARTRRYFPFAYWGQGTLVTVSS
VL: EIVLTQSPATLSLSPGERATLSCRASQNVGTNVAWYQQKPGQAPRLLIYSASYRYSGIPARFSGSGSGTDFTLTISSLEPEDFAVYYCQQYNTDPLTFGGGTKVEIK
notes: as for B1
binding result [1]: binds

B9: A6.1 IgG1 (antibody, V domains shown)
VH: EVQLVESGGGLVQPGGSLRLSCAASGFSLSTSGYGVGWVRQAPGKGLEWLAHIWWDDDKYYVDSVKGRFTISRDNAKNSLYLQMNSLRAEDTAVYYCARTRQYFPFAYWGQGTLVTVSS
VL: EIVLTQSPATLSLSPGERATLSCRASQSVGSNLAWYQQKPGQAPRLLIYSASNRYTGIPARFSGSGSGTDFTLTISSLEPEDFAVYYCQQYSTDPLTFGGGTKVEIK
notes: Human IgG1, designer mutant of D-A6; built as m28; also called D-A6.1; Clone A6.1
binding result [5]: binds

B10: VH3/VL3 IgG1 (antibody, V domains shown)
VH: EVQLVESGGGLVQPGGSLRLSCAASGFSLSTSGMGVGWVRQAPGKGLEWLAHIWWDDDKYYVDSVKGRFTISRDNAKNSLYLQMNSLRAEDTAVYYCARTRRYFPFAYWGQGTLVTVSS
VL: DIQMTQSPSSLSASVGDRVTITCRASQNVGTNVAWYQQKPGKAPKLLIYSASYRYSGVPSRFSGSGSGTDFTLTISSLQPEDFATYYCQQYNTDPLTFGGGTKVEIK
notes: as for B2
binding result [1]: binds

B11: MH-1 IgG1 (antibody, V domains shown)
VH: EVQLVESGGGLVQPGGSLRLSCAASGFSLSTSGMGMSWVRQAPGKGLEWVAHIWWDDEKYYVDSVKGRFTISRDNAKNSLYLQMNSLRAEDTAVYYCARTRQYFPFAYWGQGTLVTVSS
VL: EIVLTQSPATLSLSPGERATLSCRASQSVGSNLAWYQQKPGQAPRLLIYSASYRATGIPARFSGSGSGTDFTLTISSLEPEDFAVYYCQQYSTDPLTFGGGTKVEIK
notes: Human IgG1, designer clone; built as m28; also called Clone MH-1
binding result [4]: binds

B12: MH-4 IgG1 (antibody, V domains shown)
VH: EVQLVESGGGLVQPGGSLRLSCAASGFSLSTSGYGMSWVRQAPGKGLEWVAHIWWDDEKYYVDSVKGRFTISRDNAKNSLYLQMNSLRAEDTAVYYCARTRQYFPFAYWGQGTLVTVSS
VL: EIVLTQSPATLSLSPGERATLSCRASQSVGSNVAWYQQKPGQAPRLLIYSASYRATGIPARFSGSGSGTDFTLTISSLEPEDFAVYYCQQYSTDPLTFGGGTKVEIK
notes: Human IgG1, designer clone; built as m28; also called Clone MH-4
binding result [4]: binds

B13: MH-2 IgG1 (antibody, V domains shown)
VH: EVQLVESGGGLVQPGGSLRLSCAASGFSLSTSGYGVSWVRQAPGKGLEWVAHIWWDDEKYYVDSVKGRFTISRDNAKNSLYLQMNSLRAEDTAVYYCARTRQYFPFAYWGQGTLVTVSS
VL: EIVLTQSPATLSLSPGERATLSCRASQSVGSNLAWYQQKPGQAPRLLIYSASYRATGIPARFSGSGSGTDFTLTISSLEPEDFAVYYCQQYSTDPLTFGGGTKVEIK
notes: Human IgG1, designer clone; built as m28; also called Clone MH-2
binding result [4]: binds

B14: MH-3 IgG1 (antibody, V domains shown)
VH: EVQLVESGGGLVQPGGSLRLSCAASGFSLSTSGYGMSWVRQAPGKGLEWVAHIWWDDEKYYVDSVKGRFTISRDNAKNSLYLQMNSLRAEDTAVYYCARTRQYFPFAYWGQGTLVTVSS
VL: EIVLTQSPATLSLSPGERATLSCRASQNVGSNLAWYQQKPGQAPRLLIYSASYRATGIPARFSGSGSGTDFTLTISSLEPEDFAVYYCQQYSTDPLTFGGGTKVEIK
notes: Human IgG1, designer clone; built as m28; also called Clone MH-3
binding result [4]: binds

B15: VH1/VL3 IgG1 (antibody, V domains shown)
VH: QVTLRESGPALVKPTQTLTLTCTFSGFSLSTSGMGVGWIRQPPGKALEWLAHIWWDDDKYYNPSLKSRLTISKDTSKNQVVLTMTNMDPVDTATYYCARTRRYFPFAYWGQGTLVTVSS
VL: DIQMTQSPSSLSASVGDRVTITCRASQNVGTNVAWYQQKPGKAPKLLIYSASYRYSGVPSRFSGSGSGTDFTLTISSLQPEDFATYYCQQYNTDPLTFGGGTKVEIK
notes: as for B6
binding result [1]: binds

B16: VH2/VL3 IgG1 (antibody, V domains shown)
VH: EVQLVESGGGLVQPGGSLRLSCAASGFTFSSYWMSWVRQAPGKGLEWLAHIWWDDDKYYVDSVKGRFTISRDNAKNSLYLQMNSLRAEDTAVYYCARTRRYFPFAYWGQGTLVTVSS
VL: DIQMTQSPSSLSASVGDRVTITCRASQNVGTNVAWYQQKPGKAPKLLIYSASYRYSGVPSRFSGSGSGTDFTLTISSLQPEDFATYYCQQYNTDPLTFGGGTKVEIK
notes: as for B7
fold loss of binding function (against mVH/mVL IgG) [4]: > 100 fold
